Results: US20190064149

Columns and labels:
[1] = system: EphA2 having Myc-labeled C-terminal
[2] = system: processing-resistant EphA2 mutant (EphA2 deleted at a site to be processed by MT1-MMP, FLAG-labeled C terminal)
[3] = system: EphA2 (full-length type EphA2)
E-cadherin = E-cadherin (UniProt P12830)
Sequence of E-cadherin (P12830 155-882): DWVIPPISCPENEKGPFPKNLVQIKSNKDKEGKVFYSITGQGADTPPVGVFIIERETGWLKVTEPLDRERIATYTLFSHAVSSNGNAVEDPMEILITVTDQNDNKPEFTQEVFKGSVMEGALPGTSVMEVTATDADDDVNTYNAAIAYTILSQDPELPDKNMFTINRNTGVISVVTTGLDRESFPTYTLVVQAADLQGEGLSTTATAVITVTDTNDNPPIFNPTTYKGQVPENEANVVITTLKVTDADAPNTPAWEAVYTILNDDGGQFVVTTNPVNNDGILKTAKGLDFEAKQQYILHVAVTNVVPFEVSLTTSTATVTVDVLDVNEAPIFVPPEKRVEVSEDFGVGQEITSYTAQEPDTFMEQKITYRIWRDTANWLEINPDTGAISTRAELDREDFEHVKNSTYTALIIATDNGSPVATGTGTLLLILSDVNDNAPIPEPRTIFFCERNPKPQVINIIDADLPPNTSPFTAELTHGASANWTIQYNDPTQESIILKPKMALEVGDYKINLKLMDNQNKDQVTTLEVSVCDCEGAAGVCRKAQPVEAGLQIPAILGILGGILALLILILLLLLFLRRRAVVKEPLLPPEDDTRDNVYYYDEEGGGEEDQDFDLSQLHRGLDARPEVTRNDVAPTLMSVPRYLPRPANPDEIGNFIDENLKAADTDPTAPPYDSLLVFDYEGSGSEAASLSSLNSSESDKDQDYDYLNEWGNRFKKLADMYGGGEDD

Substance	EphA2 processed fragment, western blotting [1]	processed state of EphA2, western blotting [2]	65-kDa and 60-kDa processed fragments of EphA2 after MT1-MMP knockdown, IP-western [3]	processing of E-cadherin, western blotting (E-cadherin)	EphA2 processed fragments, western blotting with Myc antibody [1]
MT2-MMP	a processed fragment of EphA2 (small arrow) was detected only in the MT1-MMP-introduced cells	–	–	–	–
MT3-MMP	a processed fragment of EphA2 (small arrow) was detected only in the MT1-MMP-introduced cells	–	–	–	–
MT5-MMP	a processed fragment of EphA2 (small arrow) was detected only in the MT1-MMP-introduced cells	–	–	–	–
membrane type-1 matrix metallproteinase (MT1-MMP), expressed in cells	–	the mutant deleted at a cleavage site showed resistance against processing by MT1-MMP	Due to MT1-MMP knockdown, the 65-kDa and 60-kDa processed fragments of EphA2 disappeared	presence or absence of MT1-MMP expression caused no change in the processing of E-cadherin	full-length type EphA2 (large arrow) and respective EphA2 processed fragments (small arrow) having a molecular weight of 65 and 60 kDa were detected
